The target of test [1] is Arkadia (RING finger protein 111, RNF111), wild type, expressed in S. cerevisiae (human) (UniProt Q6ZNA4).
Another test deals with FLAG-SUMO2-GFP-COMP-HA. Kind of test: native gel or EMSA; native PAGE of the GFP-COMP substrates expressed in S. cerevisiae. In general terms: A gel shift assay detects complexes by their altered migration in electrophoresis.
The next test has as its target SUMO1-GFP-COMP-HA. The test is described as above.
Test [2] concerns the target SUMO-binding domain of Arkadia (residues 285–416) with mutations in the SOB motif (SOB*) (murine) (UniProt Q99ML9). Kind of test: ITC. For orientation: Isothermal titration calorimetry measures the heat released or taken up as one component is titrated into another.

Sequence of SUMO-binding domain of Arkadia (residues 285–416) with mutations in the SOB motif (SOB*) (murine) (Q99ML9 285-416, change not shown): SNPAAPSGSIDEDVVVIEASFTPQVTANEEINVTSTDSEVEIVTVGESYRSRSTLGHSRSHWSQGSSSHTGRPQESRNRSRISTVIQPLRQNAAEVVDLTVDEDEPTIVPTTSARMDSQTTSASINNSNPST
Sequence of Arkadia (RING finger protein 111, RNF111), wild type, expressed in S. cerevisiae (human) (Q6ZNA4 whole entry): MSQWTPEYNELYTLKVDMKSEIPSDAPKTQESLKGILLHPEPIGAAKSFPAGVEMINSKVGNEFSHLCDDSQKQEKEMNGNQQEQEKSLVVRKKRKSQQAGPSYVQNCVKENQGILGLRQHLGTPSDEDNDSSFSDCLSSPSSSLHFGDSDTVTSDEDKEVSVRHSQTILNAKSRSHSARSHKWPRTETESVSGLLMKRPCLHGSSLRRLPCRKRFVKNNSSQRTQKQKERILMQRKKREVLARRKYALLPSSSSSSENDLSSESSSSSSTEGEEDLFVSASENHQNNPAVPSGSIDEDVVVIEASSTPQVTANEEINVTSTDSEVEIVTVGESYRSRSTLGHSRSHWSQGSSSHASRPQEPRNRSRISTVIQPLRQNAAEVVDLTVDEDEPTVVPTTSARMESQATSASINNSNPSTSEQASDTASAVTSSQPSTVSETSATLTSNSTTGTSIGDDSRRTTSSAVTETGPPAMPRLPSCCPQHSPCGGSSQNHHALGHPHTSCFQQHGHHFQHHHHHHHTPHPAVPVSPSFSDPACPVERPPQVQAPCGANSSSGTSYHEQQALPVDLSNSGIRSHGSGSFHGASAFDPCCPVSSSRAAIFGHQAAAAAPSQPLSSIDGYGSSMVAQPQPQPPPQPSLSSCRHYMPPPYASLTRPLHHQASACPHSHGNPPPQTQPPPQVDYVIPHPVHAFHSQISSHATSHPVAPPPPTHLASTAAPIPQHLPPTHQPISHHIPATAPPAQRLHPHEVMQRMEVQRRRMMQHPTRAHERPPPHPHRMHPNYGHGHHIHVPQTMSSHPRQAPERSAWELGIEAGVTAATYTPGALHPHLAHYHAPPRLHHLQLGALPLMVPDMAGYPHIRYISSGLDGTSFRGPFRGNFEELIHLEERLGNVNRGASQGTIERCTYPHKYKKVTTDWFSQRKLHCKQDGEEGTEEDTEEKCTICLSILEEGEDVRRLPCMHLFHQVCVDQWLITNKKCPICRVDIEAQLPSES

Take “FLAG-4xSUMO2-GFP-HA (from UniProt P61956 12-95; P61956 12-95; P61956 12-95)”: the steady-state level of the reporter in S. cerevisiae co-expressing Arkadia, against the vector control (quantitative anti-HA Western blot) in test [1] turned out to be 60%.
The same measure, in the same setting: under FLAG-SUMO1-3xSUMO2-GFP-HA stands 25%.
For orientation: stoichiometry N means a count of units in the complex or per binding partner. For FLAG-SUMO2-GFP-COMP-HA, in the test with FLAG-SUMO2-GFP-COMP-HA, the stoichiometry N turned out to be 5.
SUMO1-GFP-COMP-HA came in with a stoichiometry N with SUMO1-GFP-COMP-HA of 5.
A word on the Kd: it is a measure of binding affinity in units of concentration. With “linear SUMO1-capped SUMO2 trimer (SUMO1-ΔN15 followed by two SUMO2-ΔN11) (from UniProt P63165 16-101; P61956 12-95; P61956 12-95)”, in test [2], the Kd was found to be 12.4 µM.
“linear SUMO2 trimer (tri-SUMO2-ΔN11) (from UniProt P61956 12-95; P61956 12-95; P61956 12-95)” yielded a dissociation constant Kd in test [2] of 11.1 µM.

The values are drawn from paper PMC6695498.
